2 substances from publication PMC3496014 can be followed below.

Test [1] concerns the target MBP-PfAtg3 (P. falciparum 3D7) (UniProt C0H519). In words: pull-down.
The target in test [2] is MBP-PfAtg3 W105A (P. falciparum 3D7) (UniProt C0H519). Nature of the test: pull-down.
In test [3] the target is MBP-PfAtg3 (P. falciparum 3D7) (UniProt C0H519). In words: SPR. Background: SPR reads the build-up and loss of mass on a sensor chip optically.

Substance “His6-PfAtg8 with deletion of residues 68 to 76 (from UniProt Q8IJK2 1-124) (natural protein)” registered a reduction of binding against wild type in test [1] of 80%.
Broadly, the Kd is the equilibrium constant for the complex coming apart. Read a low Kd as a tighter complex. For the substance “His6-PfAtg8^CM (cysteine mutant C37I, C119S, C122S) (from UniProt Q8IJK2 1-124) (natural protein)”, in test [2], the decrease of binding against wild type came out at 35%. In test [3], this substance showed a Kd of 326 nM.
